B1: human ANP32A C terminal truncated (huANP32A_165T), purified (GST cleaved) (domain or fragment)
chain: MEMGRRIHLELRNRTPSDVKELVLDNSRSNEGKLEGLTDEFEELEFLSTINVGLTSIANLPKLNKLKKLELSDNRVSGGLEVLAEKCPNLTHLNLSGNKIKDLSTIEPLKKLENLKSLDLFNCEVTNLNDYRENVFKLLPQLTYLDGYDRDDKEAPDSDAEGYVE
B2: human ANP32A, purified (GST cleaved) (natural protein)
chain: MEMGRRIHLELRNRTPSDVKELVLDNSRSNEGKLEGLTDEFEELEFLSTINVGLTSIANLPKLNKLKKLELSDNRVSGGLEVLAEKCPNLTHLNLSGNKIKDLSTIEPLKKLENLKSLDLFNCEVTNLNDYRENVFKLLPQLTYLDGYDRDDKEAPDSDAEGYVEGLDDEEEDEDEEEYDEDAQVVEDEEDEDEEEEGEEEDVSGEEEEDEEGYNDGEVDDEEDEEELGEEERGQKRKREPEDEGEDDD

Experiments:
[1] = target: IBV polymerase trimeric complex (Pol3): PA-His, PB1, PB2 (influenza B virus); test: SPR
[2] = target: two polymerase subunits (PA and PB1) of IBV polymerase (Pol2): PA-His, PB1 (influenza B virus); test: SPR

Binder	Kd [1] [µM]	Kd [2] [µM]
B1	> 1000	–
B2	–	> 1000

Reference: publication PMC7580981 (2020)
